According to patent US20250361268A1, “NOVEL ANTI-INFLAMMATORY PEPTIDE AND USE THEREOF” (NOVACELL TECHNOLOGY INC., priority 2022, published 2025):

B1: peptide of SEQ ID NO 61 (peptide)
peptide: HMRYKPM
HELM: PEPTIDE1{[CCCCCCCC(=O)[*:2]].H.M.R.Y.K.P.[dM].[am]}$$$$V2.0
SMILES: CCCCCCCC(=O)N[C@@H](Cc1c[nH]cn1)C(=O)N[C@@H](CCSC)C(=O)N[C@@H](CCCNC(=N)N)C(=O)N[C@@H](Cc1ccc(O)cc1)C(=O)N[C@@H](CCCCN)C(=O)N1CCC[C@H]1C(=O)N[C@H](CCSC)C(N)=O
B2: peptide of SEQ ID NO 7 (peptide)
peptide: RMRYKVM
HELM: PEPTIDE1{[CCCC(=O)[*:2]].R.M.R.Y.K.V.[dM].[am]}$$$$V2.0
SMILES: CCCC(=O)N[C@@H](CCCNC(=N)N)C(=O)N[C@@H](CCSC)C(=O)N[C@@H](CCCNC(=N)N)C(=O)N[C@@H](Cc1ccc(O)cc1)C(=O)N[C@@H](CCCCN)C(=O)N[C@H](C(=O)N[C@H](CCSC)C(N)=O)C(C)C
B3: peptide of SEQ ID NO 62 (peptide)
peptide: PMRYKPM
HELM: PEPTIDE1{P.M.R.Y.K.P.[dM].[am]}$$$$V2.0; N-terminus assumed
SMILES: CSCC[C@H](NC(=O)[C@@H]1CCCN1)C(=O)N[C@@H](CCCNC(=N)N)C(=O)N[C@@H](Cc1ccc(O)cc1)C(=O)N[C@@H](CCCCN)C(=O)N1CCC[C@H]1C(=O)N[C@H](CCSC)C(N)=O
B4: peptide of SEQ ID NO 67 (peptide)
peptide: KMKYKPM
HELM: PEPTIDE1{[ac].K.M.K.Y.K.P.[dM].[am]}$$$$V2.0
SMILES: CSCC[C@H](NC(=O)[C@H](CCCCN)NC(C)=O)C(=O)N[C@@H](CCCCN)C(=O)N[C@@H](Cc1ccc(O)cc1)C(=O)N[C@@H](CCCCN)C(=O)N1CCC[C@H]1C(=O)N[C@H](CCSC)C(N)=O
B5: peptide of SEQ ID NO 63 (peptide)
peptide: PMRYKPM
HELM: PEPTIDE1{[ac].P.M.R.Y.K.P.[dM].[am]}$$$$V2.0
SMILES: CSCC[C@H](NC(=O)[C@@H]1CCCN1C(C)=O)C(=O)N[C@@H](CCCNC(=N)N)C(=O)N[C@@H](Cc1ccc(O)cc1)C(=O)N[C@@H](CCCCN)C(=O)N1CCC[C@H]1C(=O)N[C@H](CCSC)C(N)=O
B6: peptide of SEQ ID NO 64 (peptide)
peptide: PMRYKPM
HELM: PEPTIDE1{[CCCC(=O)[*:2]].P.M.R.Y.K.P.[dM].[am]}$$$$V2.0
SMILES: CCCC(=O)N1CCC[C@H]1C(=O)N[C@@H](CCSC)C(=O)N[C@@H](CCCNC(=N)N)C(=O)N[C@@H](Cc1ccc(O)cc1)C(=O)N[C@@H](CCCCN)C(=O)N1CCC[C@H]1C(=O)N[C@H](CCSC)C(N)=O
B7: peptide of SEQ ID NO 65 (peptide)
peptide: PMRYKPM
HELM: PEPTIDE1{[CCCCCCCC(=O)[*:2]].P.M.R.Y.K.P.[dM].[am]}$$$$V2.0
SMILES: CCCCCCCC(=O)N1CCC[C@H]1C(=O)N[C@@H](CCSC)C(=O)N[C@@H](CCCNC(=N)N)C(=O)N[C@@H](Cc1ccc(O)cc1)C(=O)N[C@@H](CCCCN)C(=O)N1CCC[C@H]1C(=O)N[C@H](CCSC)C(N)=O
B8: peptide of SEQ ID NO 68 (peptide)
peptide: KMKYKPM
HELM: PEPTIDE1{[CCCC(=O)[*:2]].K.M.K.Y.K.P.[dM].[am]}$$$$V2.0
SMILES: CCCC(=O)N[C@@H](CCCCN)C(=O)N[C@@H](CCSC)C(=O)N[C@@H](CCCCN)C(=O)N[C@@H](Cc1ccc(O)cc1)C(=O)N[C@@H](CCCCN)C(=O)N1CCC[C@H]1C(=O)N[C@H](CCSC)C(N)=O

Assays:
[1] = molecular target: T1, FPR1 (UniProt P21462 1-350, limits assumed); test: cell-based or functional assay
T1 sequence (looked up): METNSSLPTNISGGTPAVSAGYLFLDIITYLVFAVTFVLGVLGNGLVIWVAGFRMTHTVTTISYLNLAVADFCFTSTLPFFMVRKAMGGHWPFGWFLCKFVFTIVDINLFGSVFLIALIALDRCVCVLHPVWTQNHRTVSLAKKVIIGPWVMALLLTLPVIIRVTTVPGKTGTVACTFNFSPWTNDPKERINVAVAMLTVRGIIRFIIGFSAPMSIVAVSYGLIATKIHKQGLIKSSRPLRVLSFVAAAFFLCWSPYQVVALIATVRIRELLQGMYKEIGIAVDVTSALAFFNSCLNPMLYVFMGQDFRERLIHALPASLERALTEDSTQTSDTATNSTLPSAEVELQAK

[2] = molecular target: T2, formyl peptide receptor 2 (FPR2) (UniProt P25090 1-351, limits assumed); test: cell-based or functional assay
T2 sequence (looked up): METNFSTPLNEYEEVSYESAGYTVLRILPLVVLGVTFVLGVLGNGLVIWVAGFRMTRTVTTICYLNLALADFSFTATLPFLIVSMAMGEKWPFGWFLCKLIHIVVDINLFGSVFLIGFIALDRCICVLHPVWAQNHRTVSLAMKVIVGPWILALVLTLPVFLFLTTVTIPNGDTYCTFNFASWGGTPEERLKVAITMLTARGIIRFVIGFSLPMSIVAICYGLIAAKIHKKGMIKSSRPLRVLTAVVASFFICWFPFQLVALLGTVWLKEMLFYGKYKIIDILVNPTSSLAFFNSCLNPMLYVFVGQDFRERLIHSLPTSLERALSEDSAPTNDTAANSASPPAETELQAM

Row | Binder | EC50 for [Ca2+] [1] | EC50 for [Ca2+] [2]
1 | B1 | > 10 µM | < 0.01 µM
2 | B2 | > 10 µM | < 0.01 µM
3 | B3 | > 10 µM | < 0.01 µM
4 | B4 | > 10 µM | < 0.01 µM
5 | B5 | > 10 µM | < 0.01 µM
6 | B6 | > 10 µM | < 0.01 µM
7 | B7 | > 10 µM | < 0.01 µM
8 | B8 | > 10 µM | < 0.01 µM
